This is an account of results in publication PMC7907806, “Ancestral lysosomal enzymes with increased activity harbor therapeutic potential for treatment of Hunter syndrome” (iScience, 2021).

In general, Kd refers to the concentration at which binding is half-saturated.

First the molecules themselves.
B1: human iduronate-2-sulfatase (hIDS), co-expressed with human formylglycine-generating enzyme (HsFGE) (enzyme)
chain: SETQANSTTDALNVLLIIVDDLRPSLGCYGDKLVRSPNIDQLASHSLLFQNAFAQQAVCAPSRVSFLTGRRPDTTRLYDFNSYWRVHAGNFSTIPQYFKENGYVTMSVGKVFHPGISSNHTDDSPYSWSFPPYHPSSEKYENTKTCRGPDGELHANLLCPVDVLDVPEGTLPDKQSTEQAIQLLEKMKTSASPFFLAVGYHKPHIPFRYPKEFQKLYPLENITLAPDPEVPDGLPPVAYNPWMDIRQREDVQALNISVPYGPIPVDFQRKIRQSYFASVSYLDTQVGRLLSALDDLQLANSTIIAFTSDHGWALGEHGEWAKYSNFDVATHVPLIFYVPGRTASLPEAGEKLFPYLDPFDSASQLMEPGRQSMDLVELVSLFPTLAGLAGLQVPPRCPVPSFHVELCREGKNLLKHFRFRDLEEDPYLPGNPRELIAYSQYPRPSDIPQWNSDKPSLKDIKIMGYSIRTIDYRYTVWVGFNPDEFLANFSDIHAGELYFVDSDPLQDHNMYNDSQGGDLFQLLMP
modifications: cysteine 84 post-translationally modified to formylglycine (fGly); N-linked glycans
notes: iduronate-2-sulfatase (IDS), human; 550-residue protein; also called human IDS; hIDS + HsFGE
B2: IDS-A3, reconstructed ancestral iduronate-2-sulfatase (last common ancestor of primates and rodents), co-expressed with HsFGE (enzyme)
chain: SETQANSTTDALNVLLIIVDDLRPSLGCYGDKLVRSPNIDQLASHSLLFQNAFAQQAVCAPSRVSFLTGRRPDTTRLYDFNSYWRVHAGNFSTIPQYFKENGYVTMSVGKVFHPGISSNHSDDSPYSWSFPPYHPSSEKYENTKTCRGPDGELHANLLCPVDVADVPEGTLPDKQSTEQAIRLLEKMKTSASPFFLAVGYHKPHIPFRYPKEFQKLYPLENITLAPDPQVPDGLPPVAYNPWMDIRQREDVQALNISVPYGPIPVDFQRKIRQSYFASVSYLDTQVGHLLSALDDLQLANSTIVAFTSDHGWALGEHGEWAKYSNFDVTTRVPLMFYVPGRTAPLPEAGEKLFPYLDPFDSASELMEPGRQTMDLVELVSLFPTLAGLAGLQVPPRCPVPSFHVELCREGQNLLKHFRFHDLEEDPHLHGNPRELIAYSQYPRPADSPQWNSDKPSLKDIKIMGYSIRTIDYRYTVWVGFNPDEFLANFSDIHAGELYFVDSDPLQDHNMYNDSQGGDLPQSLMP
modifications: cysteine 84 post-translationally modified to formylglycine (fGly); N-linked glycans
B3: IDS-A3_T354A, variant of ancestral IDS-A3 with the reversed mutation at position 354, co-expressed with HsFGE (enzyme)
chain: B2 chain with T329A
modifications: cysteine 84 post-translationally modified to formylglycine (fGly); N-linked glycans

Positions count from the first letter of the chain named.

This experiment addresses recombinant human mannose-6-phosphate receptor (M6PR) (human, UniProt P11717 41-2491). The experiment is described as follows: SPR; Biacore T200, single cycle kinetics mode; IDS enzymes co-expressed with HsFGE on recombinant human M6P receptor; who was immobilised is not given in the source. The conditions noted are these: both partners purified. (In general: Surface plasmon resonance follows binding to a sensor surface in real time, without labels.)
With B1, the dissociation constant Kd is 32 nM.

Regarding B2, the Kd came to 26 nM.

Take B3: the Kd was 46 nM.
